Data as given in patent publication US11254722B2, “Recombinant proteins and uses thereof” (ACADEMIA SINICA, priority 2017, dated 2022).

T1: nrgECD (amino acids Ser2-Lys246 of neuregulin beta 1) (Homo sapiens, UniProt Q02297)
T1 construct: Ser2-Lys246 of neuregulin beta 1; purchased R&D Sciences or SinoBiologicals
T1 sequence (Q02297 2-246 isoform Q02297-6): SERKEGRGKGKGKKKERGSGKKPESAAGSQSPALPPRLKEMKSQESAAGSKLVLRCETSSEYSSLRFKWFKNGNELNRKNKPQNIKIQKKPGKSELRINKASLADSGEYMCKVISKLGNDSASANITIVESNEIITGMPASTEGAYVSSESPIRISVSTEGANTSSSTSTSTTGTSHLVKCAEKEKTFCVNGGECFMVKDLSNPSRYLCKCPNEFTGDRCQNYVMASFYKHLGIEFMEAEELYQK

T2: nrgEGF (amino acids Thr176-Lys246 of neuregulin-beta 1) (Homo sapiens, UniProt Q02297)
T2 construct: Thr176-Lys246 of neuregulin-beta 1; purchased R&D Sciences or SinoBiologicals
T2 sequence (Q02297 176-246 isoform Q02297-6): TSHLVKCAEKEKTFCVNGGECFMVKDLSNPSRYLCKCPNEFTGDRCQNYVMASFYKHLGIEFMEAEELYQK


Experiments:
[1] = target: T1, nrgECD (amino acids Ser2-Lys246 of neuregulin beta 1); experiment: Biacore binding to nrgECD; settings: immobilized nrgECD
Protocol: (§1) Biacore binding was performed at David Myszka's laboratory at the University of Utah or at the Genomic Research Center at Academia Sinica. Surfaces of binding protein chimera were made via chemical immobilization on a CM4 chip using standard amine coupling chemistry. […] Excess surface carboxyl activated sites on all four flow cells was blocked using the doubly positively charged species ethylenediamine. Binding experiments (but not immobilizations) in HBS-P (10 mM HEPES pH 7.4, 150 mM NaCl, 0.05% P20), The HBS-P was supplemented with BSA at 0.2 mg/mL, or HBS-P was supplemented with 500 mM NaCl (650 mM NaCl, final concentration). Analytes were also reconstituted in the corresponding buffer. All experiments were performed at 25° C. 1/150 dilutions of phosphoric acid were used to regenerate IGFBP3-Fc surfaces and a sequence of 3 M MgCl2 followed by 5 M GuCl was used to regenerate surfaces immobilized with growth factor. Dissociation constants reported below used immobilized binding protein unless noted. Differences between binding constants may be expected between growth factor immobilization and chimera immobilization.
(§2) In this example, erbB4 domain 1 was attached to the N-terminus of the recombinant IGFBP3-Fc or the recombinant IGFBP3-v1v2-Fc.

[2] = target: T2, nrgEGF (amino acids Thr176-Lys246 of neuregulin-beta 1); experiment: Biacore binding to nrgEGF
Protocol: as §1, §2

[3] = test system: MCF-7 breast cancer cells; experiment: MCF-7 proliferation assay; assay type: cell-based; settings: FIG. 5
Protocol: (§3) MCF-7 cells (a breast cancer cell line) were maintained in MEM (GIBCO) plus insulin and NEAA and 10% FBS (Hyclone).
(§4) For the proliferation assay, cells except for HUVEC were seeded at a density of 1,000 to 6,000 in 96 wells in an assay buffer of DMEM/F12 plus 0.2% BSA and 10 ug/ml transferrin. Chemical inhibitors were added after 16-20 hours after plating; IGF-1 or other growth factors or test chimeras in assay buffer were added at the time of plating or 16-20 hours after plating. 5,000 HUVEC ells were plated in poly-L-lysine coated 96 wells in M199 with 1%/FBS and HEPES. After 3 to 4 days of culture, growth was determined by incubating cells with Alamar blue for 4 to 6 hours and then the fluorescence (RFU) at 544/590 nm was read. For long term proliferation assays, cells were plated in the growth media with 5% or 10% FBS at densities of 500 to 10,000 cells per cm^2 growth area and grown for 7 to 21 days. Inhibitors and effectors were added 1-4 days after plating. Cells were exposed to cisplatin or gemcitabine for two days. Medium was renewed twice weekly. At completion, cells were fixed and then stained with Giemsa.
We next examined the effect of 56662 (BP3/Fc) on the proliferation induced by growth factors that interacted with the IGFBP3. The proliferation of MCF-7 breast cancer cells was induced in serum-free medium by individual growth factors like IGF-1, IGF-2, EGF, TGF-a, Nrgbx, b-FGF, and amphiregulin (FIG. 1).

hep3B cells = experiment: hep3B proliferation assay; assay type: cell-based, human; settings: FIG. 22A
Protocol: as §4
The human hepatoma cell line hep3B could be stimulated by many growth factors including IGF-1, IGF-2, HGF, bFGF, VEGF, and neuregulin.

HUVEC cells = experiment: HUVEC proliferation assay; assay type: cell-based
Protocol: as §3, §4
Growth factor synergism can also be observed in the proliferation of HUVEC cells.

IGF-1 and VEGF = experiment: Competition binding ELISA with biotinylated IGF-1 or biotinylated VEGF; settings: competitive inhibition data, FIG. 8 and FIG. 9
Protocol: Plates were coated with goat anti-human Fc antibody, blocked and then incubated with chimera as in the Fc ELISA. Biotinylated IGF-1 (GroPep) or VEGF-Biotin (R&D Systems VEGF biotinylated with sulfo-NHS-LC-biotin as per instructions (Pierce) was added for 2 hours followed by streptavidin-HRP (Jackson Immunoresearch) for 30 minutes. Chromogenic development with tetramethyl benzidine was performed as described above.
ELISA plates were coated with 0.5 μg/ml growth factor (IGF-1, IGF-2, VEGF, etc.) in PBS overnight and blocked as described above. After overnight incubation with chimera, chimera binding was detected with anti-human Fc-HRP and development with tetramethyl benzidine as described above.
Binding specificity was also studied by competition binding assays using biotinylated IGF-1 (IGF-1-bio) or biotinylated VEGF (VEGF-bio) in the growth factor ELISA assay.

| Molecule | Kd [1] | Kd [2] | inhibition of IGF-1-induced proliferation of MCF-7, compared to 56662 and chimera B [3] | rescue by HGF, bFGF, or IGF in hep3b cells treated with erlotinib (hep3B cells) | inhibition of VEGF-induced proliferation of HUVEC cells (HUVEC cells; FIG. 6, FIG. 13) | inhibition of HUVEC proliferation stimulated by IGF-1, bFGF, HGF, VEGF, and combinations (HUVEC cells; FIG. 14) | simultaneous binding of IGF and VEGF (IGF-1 and VEGF) |
| --- | --- | --- | --- | --- | --- | --- | --- |
| IGFBP3-erbB4-Fc: ErbB4-GS-IGFBP3-gly 3 linker-Fc, SEQ ID NO: 22 (protein) MSEVPVARVWLVLLLLTVQVGVTAGVQPSDSQSVCAGTENKLSSLSDLEQQYRALRKYYENCEVVMGNLEITSIEHNRDLSFLRSVREVTGYVLVALNQFRYLPLENLRIIRGTKLYEDRYALAIFLNYRKDGNFGLQELGLKNLTEILNGGVYVDQNKFLCYADTIHWQDIVRNPWPSNLTLVSTNGSSGCGRCHKSCTGRCWGPTENHCQTLTRTVGGGGSGGGGSGGGGSGGGGSGGGGGASSAGLGPVVRCEPCDARALAQCAPPPAVCAELVREPGCGCCLTCALSEGQPCGIYTERCGSGLRCQPSPDEARPLQALLDGRGLCVNASAVSKGHAKDSQRYKVDYESQSTDTQNFSSESKRETEYGPCRREMEDTLNHLKFLNVLSPRGVHIPNCDKKGFYKKKQCRPSKGRKRGFCWCVDKYGQPLPGYTTKGKEDVHCYSMQSKVECPPCPAPPVAGPSVFLFPPKPKDQLMISRTPEVTCVVVDVSHEDPEVKFNWYVDGVEVHNAKTKPREEQYNSTYRVVSVLTVLHQDWLNGKEYKCKVSNKGLPSSIEKTISKAKGQPREPQVYTLPPSREEMTKNQVSLTCLVKGFYPSDIAVEWESNGQPENNYKTTPPVLDSDGSFFLYSKLTVDKSRWQQGNVFSCSVMHEGLHNHYTQKSLSLSPGK | 0.004 nM | 6 nM | – | – | – | – | – |
| chimera A: IGFBP3 with IGFBP3 linker deletion 1-gly 3 linker-v1v2-Fc, SEQ ID NO: 14 (protein) MSEVPVARVWLVLLLLTVQVGVTAGGASSAGLGPVVRCEPCDARALAQCAPPPAVCAELVREPGCGCCLTCALSEGQPCGIYTERCGSGLRCQPSPDEARPLQALLDGRGLCVNASAVSKGHAKDSQRYKVDYESQSTDTQNFSSESKRETEYGPCRREMEDTLNHLKFLNVLSPRGVHIPNCDKKGFYKKKQCRPSKGRKRGFCWCVDKYGQPLPGYTTKGKEDVHCYSMQSKAPPAPGNASESEEDRSAGIYIFISDTGRPFVEMYSEIPEIIHMTEGRELVIPCRVTSPNITVTLKKFPLDTLIPDGKRIIWDSRKGFIISNATYKEIGLLTCEATVNGHLYKTNYLTHRQGYRIYDVVLSPSHGIELSVGEKLVLNCTARTELNVGIDFNWEYPSSKHQHKKLVNRDLKTQSGSEMKKFLSTLTIDGVTRSDQGLYTCAASSGLMTKKNSTFVRVHEKVECPPCPAPPVAGPSVFLFPPKPKDQLMISRTPEVTCVVVDVSHEDPEVKFNWYVDGVEVHNAKTKPREEQYNSTYRVVSVLTVLHQDWLNGKEYKCKVSNKGLPSSIEKTISKAKGQPREPQVYTLPPSREEMTKNQVSLTCLVKGFYPSDIAVEWESNGQPENNYKTTPPVLDSDGSFFLYSKLTVDKSRWQQGNVFSCSVMHEGLHNHYTQKSLSLSPGK | – | – | a smaller EC50 and a higher maximal inhibition | decreased the rescue | potent inhibition | inhibited | could bind simultaneously |
